Test results published in patent US20230061973A1 (LARIMAR THERAPEUTICS, published 2023).
Substitutions are numbered along the chain they refer to.

Columns and labels:
[1] = biological target: exemplary TAT frataxin fusion molecule (HIV-1) (UniProt Q16595); experiment: immunopurification from plasma on antibody-coated magnetic beads, trypsin digest, LC/MS of peptide …
[2] = biological target: exemplary TAT frataxin fusion molecule (HIV-1) (UniProt Q16595); experiment: PK sandwich ELISA in human plasma, antibody as capture, HRP anti-frataxin mAb detection
[3] = biological target: exemplary TAT frataxin fusion molecule (HIV-1) (UniProt Q16595); experiment: bridging (ADA) assay in human plasma: antibody titrated with biotinylated and sulfo-tagged TAT frataxin fusion molecule, streptavidin plate, ECL read-out
[4] = biological target: T1, exemplary TAT frataxin fusion molecule (HIV-1, UniProt Q16595 1-210); experiment: PK sandwich ELISA in human plasma, antibody as capture, HRP anti-frataxin mAb detection
T1 construct: in the bridging assays biotinylated and sulfotagged forms were used; also called TAT-FXN fusion molecule; TAT FXN fusion molecule
T1 sequence: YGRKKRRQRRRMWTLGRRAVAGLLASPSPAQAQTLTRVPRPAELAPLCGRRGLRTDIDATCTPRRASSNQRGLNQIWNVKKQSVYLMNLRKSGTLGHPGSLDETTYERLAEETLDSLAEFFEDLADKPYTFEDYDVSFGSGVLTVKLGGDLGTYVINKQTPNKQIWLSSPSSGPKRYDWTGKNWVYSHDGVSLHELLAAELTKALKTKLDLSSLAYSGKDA

polyclonal anti-TAT E8332 polyclonal antibody
LC/MS signal after immunopurification, fold higher than with anti-TAT antibody ab63957 [1]: 5 fold higher
Mean OD at plasma conc. 0.400 ng/mL [2]: 0.075 OD
Mean OD at plasma conc. 0.800 ng/mL [2]: 0.113 OD
Mean OD at plasma conc. 1.60 ng/mL [2]: 0.165 OD
Mean OD at plasma conc. 3.20 ng/mL [2]: 0.322 OD
Mean OD at plasma conc. 6.40 ng/mL [2]: 0.631 OD
Mean OD at plasma conc. 12.8 ng/mL [2]: 1.08 OD
Mean OD at plasma conc. 25.6 ng/mL [2]: 1.83 OD
Mean OD at plasma conc. 51.2 ng/mL [2]: 3.1 OD
S/N at plasma conc. 0.400 ng/mL [2]: 1.5
S/N at plasma conc. 0.800 ng/mL [2]: 2.3
S/N at plasma conc. 1.60 ng/mL [2]: 3.4
S/N at plasma conc. 3.20 ng/mL [2]: 6.6
S/N at plasma conc. 6.40 ng/mL [2]: 12.9
S/N at plasma conc. 12.8 ng/mL [2]: 22.1
S/N at plasma conc. 25.6 ng/mL [2]: 37.3
S/N at plasma conc. 51.2 ng/mL [2]: 63.3
EC50 (read off the curve) [3]: 20 µg/mL

B1: antibody 10-9 (antibody, V domains shown)
VH: QSLEESGGDLVKPGASLTLTCTASGFSFSSGYWICWVRQAPGKGLEWIACIYTGDGDTSYASWAKGRFTISKTSSTTVTLQMTSLTVADTAIYFCARDTSGTFYYNLWGPGTLVAVSS
VL: AAVLTQTPSSVSAAVGGTVTISCQSSESVYKTNYLSWFQKKPGQPPKLLIYDASTLASGVPSRFSGSGSGTQFTLTISDLECDDAATYYCAGGYSDDINAFGGGTEVEIK
notes: Rabbit monoclonal
Mean OD at plasma conc. 0.400 ng/mL [4]: 0.077 OD
Mean OD at plasma conc. 0.800 ng/mL [4]: 0.1 OD
Mean OD at plasma conc. 1.60 ng/mL [4]: 0.14 OD
Mean OD at plasma conc. 3.20 ng/mL [4]: 0.229 OD
Mean OD at plasma conc. 6.40 ng/mL [4]: 0.437 OD
Mean OD at plasma conc. 12.8 ng/mL [4]: 0.781 OD
Mean OD at plasma conc. 25.6 ng/mL [4]: 1.49 OD
Mean OD at plasma conc. 51.2 ng/mL [4]: 2.77 OD
S/N at plasma conc. 0.400 ng/mL [4]: 1.6
S/N at plasma conc. 0.800 ng/mL [4]: 2.1
S/N at plasma conc. 1.60 ng/mL [4]: 3
S/N at plasma conc. 3.20 ng/mL [4]: 4.9
S/N at plasma conc. 6.40 ng/mL [4]: 9.3
S/N at plasma conc. 12.8 ng/mL [4]: 16.6
S/N at plasma conc. 25.6 ng/mL [4]: 31.7
S/N at plasma conc. 51.2 ng/mL [4]: 59

B2: antibody 12-1 (antibody, V domains shown)
VH: B1 VH
VL: DVVMTQTPSPVSAPVGGTVTINCQASQNIYSNLAWYQQKPGQPPKLLIYGASTLASGVSSRFKGSRSGTEFTLTISDLECADAATYYCQSYVYSSSTADTFGGGTKVVVE
notes: Rabbit monoclonal
Mean OD at plasma conc. 0.400 ng/mL [4]: 0.067 OD
Mean OD at plasma conc. 0.800 ng/mL [4]: 0.088 OD
Mean OD at plasma conc. 1.60 ng/mL [4]: 0.137 OD
Mean OD at plasma conc. 3.20 ng/mL [4]: 0.229 OD
Mean OD at plasma conc. 6.40 ng/mL [4]: 0.433 OD
Mean OD at plasma conc. 12.8 ng/mL [4]: 0.795 OD
Mean OD at plasma conc. 25.6 ng/mL [4]: 1.44 OD
Mean OD at plasma conc. 51.2 ng/mL [4]: 2.67 OD
S/N at plasma conc. 0.400 ng/mL [4]: 1.4
S/N at plasma conc. 0.800 ng/mL [4]: 1.9
S/N at plasma conc. 1.60 ng/mL [4]: 2.9
S/N at plasma conc. 3.20 ng/mL [4]: 4.9
S/N at plasma conc. 6.40 ng/mL [4]: 9.2
S/N at plasma conc. 12.8 ng/mL [4]: 16.9
S/N at plasma conc. 25.6 ng/mL [4]: 30.7
S/N at plasma conc. 51.2 ng/mL [4]: 56.8

B3: antibody 12-10 (antibody, V domains shown)
VH: B1 VH
VL: B1 VL
notes: Rabbit monoclonal
Mean OD at plasma conc. 0.400 ng/mL [4]: 0.067 OD
Mean OD at plasma conc. 0.800 ng/mL [4]: 0.089 OD
Mean OD at plasma conc. 1.60 ng/mL [4]: 0.141 OD
Mean OD at plasma conc. 3.20 ng/mL [4]: 0.242 OD
Mean OD at plasma conc. 6.40 ng/mL [4]: 0.447 OD
Mean OD at plasma conc. 12.8 ng/mL [4]: 0.818 OD
Mean OD at plasma conc. 25.6 ng/mL [4]: 1.51 OD
Mean OD at plasma conc. 51.2 ng/mL [4]: 2.79 OD
S/N at plasma conc. 0.400 ng/mL [4]: 1.4
S/N at plasma conc. 0.800 ng/mL [4]: 1.8
S/N at plasma conc. 1.60 ng/mL [4]: 2.9
S/N at plasma conc. 3.20 ng/mL [4]: 4.9
S/N at plasma conc. 6.40 ng/mL [4]: 9.1
S/N at plasma conc. 12.8 ng/mL [4]: 16.7
S/N at plasma conc. 25.6 ng/mL [4]: 30.8
S/N at plasma conc. 51.2 ng/mL [4]: 57

B4: antibody 10-5 (antibody, V domains shown)
VH: B1 VH
VL: B2 VL
notes: Rabbit monoclonal
Mean OD at plasma conc. 0.400 ng/mL [4]: 0.071 OD
Mean OD at plasma conc. 0.800 ng/mL [4]: 0.09 OD
Mean OD at plasma conc. 1.60 ng/mL [4]: 0.135 OD
Mean OD at plasma conc. 3.20 ng/mL [4]: 0.23 OD
Mean OD at plasma conc. 6.40 ng/mL [4]: 0.447 OD
Mean OD at plasma conc. 12.8 ng/mL [4]: 0.819 OD
Mean OD at plasma conc. 25.6 ng/mL [4]: 1.53 OD
Mean OD at plasma conc. 51.2 ng/mL [4]: 2.86 OD
S/N at plasma conc. 0.400 ng/mL [4]: 1.5
S/N at plasma conc. 0.800 ng/mL [4]: 1.9
S/N at plasma conc. 1.60 ng/mL [4]: 2.9
S/N at plasma conc. 3.20 ng/mL [4]: 4.9
S/N at plasma conc. 6.40 ng/mL [4]: 9.5
S/N at plasma conc. 12.8 ng/mL [4]: 17.4
S/N at plasma conc. 25.6 ng/mL [4]: 32.5
S/N at plasma conc. 51.2 ng/mL [4]: 60.8

B5: antibody 12-3 (antibody, V domains shown)
VH: B1 VH
VL: B2 VL
notes: Rabbit monoclonal
Mean OD at plasma conc. 0.400 ng/mL [4]: 0.067 OD
Mean OD at plasma conc. 0.800 ng/mL [4]: 0.091 OD
Mean OD at plasma conc. 1.60 ng/mL [4]: 0.133 OD
Mean OD at plasma conc. 3.20 ng/mL [4]: 0.22 OD
Mean OD at plasma conc. 6.40 ng/mL [4]: 0.416 OD
Mean OD at plasma conc. 12.8 ng/mL [4]: 0.767 OD
Mean OD at plasma conc. 25.6 ng/mL [4]: 1.45 OD
Mean OD at plasma conc. 51.2 ng/mL [4]: 2.78 OD
S/N at plasma conc. 0.400 ng/mL [4]: 1.6
S/N at plasma conc. 0.800 ng/mL [4]: 2.1
S/N at plasma conc. 1.60 ng/mL [4]: 3.1
S/N at plasma conc. 3.20 ng/mL [4]: 5.1
S/N at plasma conc. 6.40 ng/mL [4]: 9.7
S/N at plasma conc. 12.8 ng/mL [4]: 17.8
S/N at plasma conc. 25.6 ng/mL [4]: 33.7
S/N at plasma conc. 51.2 ng/mL [4]: 64.6

B6: antibody 10-4 (antibody, V domains shown)
VH: B1 VH
VL: B2 VL
notes: Rabbit monoclonal
Mean OD at plasma conc. 0.400 ng/mL [4]: 0.076 OD
Mean OD at plasma conc. 0.800 ng/mL [4]: 0.092 OD
Mean OD at plasma conc. 1.60 ng/mL [4]: 0.14 OD
Mean OD at plasma conc. 3.20 ng/mL [4]: 0.229 OD
Mean OD at plasma conc. 6.40 ng/mL [4]: 0.411 OD
Mean OD at plasma conc. 12.8 ng/mL [4]: 0.757 OD
Mean OD at plasma conc. 25.6 ng/mL [4]: 1.41 OD
Mean OD at plasma conc. 51.2 ng/mL [4]: 2.7 OD
S/N at plasma conc. 0.400 ng/mL [4]: 1.4
S/N at plasma conc. 0.800 ng/mL [4]: 1.6
S/N at plasma conc. 1.60 ng/mL [4]: 2.5
S/N at plasma conc. 3.20 ng/mL [4]: 4.1
S/N at plasma conc. 6.40 ng/mL [4]: 7.3
S/N at plasma conc. 12.8 ng/mL [4]: 13.5
S/N at plasma conc. 25.6 ng/mL [4]: 25.2
S/N at plasma conc. 51.2 ng/mL [4]: 48.3

B7: antibody 12-8 (antibody, V domains shown)
VH: B1 VH
VL: B1 VL
notes: Rabbit monoclonal
Mean OD at plasma conc. 0.400 ng/mL [4]: 0.07 OD
Mean OD at plasma conc. 0.800 ng/mL [4]: 0.087 OD
Mean OD at plasma conc. 1.60 ng/mL [4]: 0.129 OD
Mean OD at plasma conc. 3.20 ng/mL [4]: 0.225 OD
Mean OD at plasma conc. 6.40 ng/mL [4]: 0.409 OD
Mean OD at plasma conc. 12.8 ng/mL [4]: 0.75 OD
Mean OD at plasma conc. 25.6 ng/mL [4]: 1.45 OD
Mean OD at plasma conc. 51.2 ng/mL [4]: 2.67 OD
S/N at plasma conc. 0.400 ng/mL [4]: 1.5
S/N at plasma conc. 0.800 ng/mL [4]: 1.9
S/N at plasma conc. 1.60 ng/mL [4]: 2.7
S/N at plasma conc. 3.20 ng/mL [4]: 4.8
S/N at plasma conc. 6.40 ng/mL [4]: 8.7
S/N at plasma conc. 12.8 ng/mL [4]: 16
S/N at plasma conc. 25.6 ng/mL [4]: 30.9
S/N at plasma conc. 51.2 ng/mL [4]: 56.9

B8: antibody 10-1 (antibody, V domains shown)
VH: B1 VH
VL: B1 VL with A1E, A2L, P8A, E108V, I109V
notes: Rabbit monoclonal
Mean OD at plasma conc. 0.400 ng/mL [4]: 0.07 OD
Mean OD at plasma conc. 0.800 ng/mL [4]: 0.093 OD
Mean OD at plasma conc. 1.60 ng/mL [4]: 0.14 OD
Mean OD at plasma conc. 3.20 ng/mL [4]: 0.228 OD
Mean OD at plasma conc. 6.40 ng/mL [4]: 0.43 OD
Mean OD at plasma conc. 25.6 ng/mL [4]: 1.44 OD
Mean OD at plasma conc. 51.2 ng/mL [4]: 2.66 OD
S/N at plasma conc. 0.400 ng/mL [4]: 1.5
S/N at plasma conc. 0.800 ng/mL [4]: 2
S/N at plasma conc. 1.60 ng/mL [4]: 3
S/N at plasma conc. 3.20 ng/mL [4]: 5
S/N at plasma conc. 6.40 ng/mL [4]: 9.3
S/N at plasma conc. 12.8 ng/mL [4]: 17.1
S/N at plasma conc. 25.6 ng/mL [4]: 31.3
S/N at plasma conc. 51.2 ng/mL [4]: 57.7

B9: antibody 10-12 (antibody, V domains shown)
VH: B1 VH
VL: B1 VL with A1E, A2L, P8A, E108V, I109V
notes: Rabbit monoclonal
Mean OD at plasma conc. 0.400 ng/mL [4]: 0.073 OD
Mean OD at plasma conc. 0.800 ng/mL [4]: 0.092 OD
Mean OD at plasma conc. 1.60 ng/mL [4]: 0.136 OD
Mean OD at plasma conc. 3.20 ng/mL [4]: 0.23 OD
Mean OD at plasma conc. 6.40 ng/mL [4]: 0.417 OD
Mean OD at plasma conc. 12.8 ng/mL [4]: 0.778 OD
Mean OD at plasma conc. 25.6 ng/mL [4]: 1.4 OD
Mean OD at plasma conc. 51.2 ng/mL [4]: 2.7 OD
S/N at plasma conc. 0.400 ng/mL [4]: 1.6
S/N at plasma conc. 0.800 ng/mL [4]: 2
S/N at plasma conc. 1.60 ng/mL [4]: 3
S/N at plasma conc. 3.20 ng/mL [4]: 5.1
S/N at plasma conc. 6.40 ng/mL [4]: 9.3
S/N at plasma conc. 12.8 ng/mL [4]: 17.3
S/N at plasma conc. 25.6 ng/mL [4]: 31.2
S/N at plasma conc. 51.2 ng/mL [4]: 60
